Positions count from the first letter of the chain named.
B1: scFv G8(1H08) (scFv, V domains shown)
VH: QVQLVQSGAEVKKPGASVKVSCKASGYTFGNYFMHWVRQAPGQGLEWMGMVNPSGGSETFAQKFQGRVTMTRDTSTSTVYMELSSLRSEDTAVYYCAASTWIQPFDYWGQGTLVTVSS
VL: DIQMTQSPSSLSASVGDRVTITCRASQGINSYLAWYQQKPGKAPKLLIYDASNLETGVPSRFSGSGSGTDFTLTISSLQPEDFATYYCQQHNSYPPTFGQGTKLEIK
notes: also called G8-P1H08
B2: scFv G8(1C01) (scFv, V domains shown)
VH: QVQLVQSGAEVKKPGASVKVSCKASGGTFSSHAISWVRQAPGQGLEWMGVIIPSGGTSYTQKFQGRVTMTRDTSTSTVYMELSSLRSEDTAVYYCARGDYYDSSGYYFPVYFDYWGQGTLVTVSS
VL: B1 VL with G28N, N30Y, S31T, A34N, H91A, S93G, Y94F, P96L, Q100G, L104V
B3: scFv G8(5F02) (scFv, V domains shown)
VH: QVQLVQSGAEVKKPGASVKVSCKASGYTFTGYYIHWVRQAPGQGLEWMGVINPSGGSTTYAQKLQGRVTMTRDTSTSTVYMELSSLRSEDTAVYYCARDRDSSWTYYYYGMDVWGQGTTVTVSS
VL: EIVMTQSPATLSVSPGERATLSCRASQSVGNSLAWYQQKPGQAPRLLIYGASTRATGIPARFSGSGSGTEFTLTISSLQSEDFAVYYCQQYGSSPYTFGQGTKVEIK
B4: scFv G8(1A04) (scFv, V domains shown)
VH: QVQLVQSGAEVKKPGASVKVSCKASGYPFIGQYLHWVRQAPGQGLEWMGIINPSGDSATYAQKFQGRVTMTRDTSTSTVYMELSSLRSEDTAVYYCARDLSYYYGMDVWGQGTTVTVSS
VL: DIQMTQSPSSLSASVGDRVTITCWASQGISSYLAWYQQKPGKAPKLLIYAASSLQSGVPSRFSGSGSGTDFTLTISSLQPEDFATYYCQQSYNTPWTFGPGTKVDIK
B5: scFv G8(1B03) (scFv, V domains shown)
VH: EVQLLESGGGLVQPGGSLRLSCAASGFTFSDYYMSWVRQAPGKGLEWVSGINWNGGSTGYADSVKGRFTISRDNSKNTLYLQMNSLRAEDTAVYYCARVEQGYDIYYYYYMDVWGKGTTVTVSS
VL: B4 VL with W24R, G28S, A34N, A50K, Q55E, N93S, T94A, W96Y
B6: scFv G8(2E06) (scFv, V domains shown)
VH: QVQLVQSGAEVKKPGASVKVSCKASGYTLTTYYMHWVRQAPGQGLEWMGWINPNSGGTNYAQKFQGRVTMTRDTSTSTVYMELSSLRSEDTAVYYCARAVYYDFWSGPFDYWGQGTLVTVSS
VL: B1 VL with N30S, S31N, Y32S, D50A, N53S, E55Q, T56S, H91A, Y94F, P96W
B7: scFv G8(5C03) (scFv, V domains shown)
VH: QVQLVQSGAEVKKPGASVKVSCKASGYTFTSYYMHWVRQAPGQGLEWMGWMNPNSGNTGYAQKFQGRVTMTRDTSTSTVYMELSSLRSEDTAVYYCARGLLGFGEFLTYGMDVWGQGTLVTVSS
VL: B4 VL with W24R, S31N, Y32W, S53T, S91T, N93S, P100Q, V104L, D105E
B8: scFv G8(1D02) (scFv, V domains shown)
VH: EVQLLESGGGLVQPGGSLRLSCAASGFTFSSYWMSWVRQAPGKGLEWVSSISGRGDNTYYADSVKGRFTISRDNSKNTLYLQMNSLRAEDTAVYYCARASGSGYYYYYGMDVWGQGTTVTVSS
VL: B4 VL with W24Q, G28D, S31N, A34N, N93S, T94A, W96Y, P100G, D105E
B9: scFv G8(4F05) (scFv, V domains shown)
VH: QVQLVQSGAEVKKPGASVKVSCKASGYTFSNMYLHWVRQAPGQGLEWMGWINPNTGDTNYAQTFQGRVTMTRDTSTSTVYMELSSLRSEDTAVYYCARGLYGDYFLYYGMDVWGQGTKVTVSS
VL: B4 VL with W24R, S31N, S53T, N93S, W96L, P100G, D105E
B10: scFv G8(2B05) (scFv, V domains shown)
VH: EVQLLESGGGLVQPGGSLRLSCAASGFDFSIYSMNWVRQAPGKGLEWVSAISGSGGSTYYADSVKGRFTISRDNSKNTLYLQMNSLRAEDTAVYYCASNGNYYGSGSYYNYWGQGTLVTVSS
VL: DIQMTQSPSSLSASVGDRVTITCRASQSISRWLAWYQQKPGKAPKLLIYAASSLQSGVPSRFSGSGSGTDFTLTISSLQPEDFATYYCQQYSTYPITIGQGTKVEIK
B11: scFv G8(1A03) (scFv, V domains shown)
VH: QVQLVQSGAEVKKPGASVKVSCKASGGTFSRSAITWVRQAPGQGLEWMGWINPNSGATNYAQKFQGRVTMTRDTSTSTVYMELSSLRSEDTAVYYCARDDYGDYVAYFQHWGQGTLVTVSS
VL: DIQMTQSPSSLSASVGDRVTITCRASQSITSYLNWYQQKPGKAPKLLIYDASNLETGVPSRFSGSGSGTDFTLTISSLQPEDFATYYCQQNYNSVTFGQGTKLEIK
B12: scFv G8(1A06) (scFv, V domains shown)
VH: QVQLVQSGAEVKKPGASVKVSCKASGYTFTNYYMHWVRQAPGQGLEWMGWMNPIGGGTGYAQKFQGRVTMTRDTSTSTVYMELSSLRSEDTAVYYCARVYDFWSVLSGFDIWGQGTLVTVSS
VL: DIQMTQSPSSLSASVGDRVTITCRASQAISNSLAWYQQKPGKAPKLLIYAASTLQSGVPSRFSGSGSGTDFTLTISSLQPEDFATYYCGQSYSTPPTFGQGTKLEIK
B13: scFv G8(5G08) (scFv, V domains shown)
VH: B9 VH with S30T, N31S, M32N, L34M, I51M, T55S, D57N, N59G, T63K, K118T
VL: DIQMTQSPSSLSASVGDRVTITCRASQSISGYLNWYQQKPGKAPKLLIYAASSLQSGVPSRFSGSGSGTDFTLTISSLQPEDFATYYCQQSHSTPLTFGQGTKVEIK
B14: scFv G10(2G11) (scFv, V domains shown)
VH: QVQLVQSGAEVKKPGASVKVSCKASGGTFSTHDINWVRQAPGQGLEWMGVINPSGGSAIYAQKFQGRVTMTRDTSTSTVYMELSSLRSEDTAVYYCARDRGYSYGYFDYWGQGTLVTVSS
VL: B1 VL with G28D, N30S, S31R, H91A, Y94F, P96R, L104V
B15: scFv G10(2C04) (scFv, V domains shown)
VH: QVQLVQSGAEVKKPGASVKVSCKASGGTFSNSIINWVRQAPGQGLEWMGWMNPNSGNTNYAQKFQGRVTMTRDTSTSTVYMELSSLRSEDTAVYYCAREQWPSYWYFDLWGRGTLVTVSS
VL: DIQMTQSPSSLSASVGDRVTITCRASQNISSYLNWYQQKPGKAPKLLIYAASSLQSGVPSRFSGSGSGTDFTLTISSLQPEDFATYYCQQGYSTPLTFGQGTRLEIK
B16: scFv G10(4D10) (scFv, V domains shown)
VH: QVQLVQSGAEVKKPGASVKVSCKASGYTFTGYYLHWVRQAPGQGLEWMGMIGPSDGSTSYAQKFQGRVTMTRDTSTSTVYMELSSLRSEDTAVYYCARDGDAFDIWGQGTMVTVSS
VL: B1 VL with N30S, Y32W, H91S, N92Y, Y94T, P96L, Q100G, L104V
B17: scFv G10(1H01) (scFv, V domains shown)
VH: B16 VH with L34M, D99G, G100V, D101G, A102N, F103L, I105Y, M111L
VL: B12 VL with A28S, S32Y, A34N, T53S, G89H, S91T, P96L, L104V
B18: scFv G10(1A07) (scFv, V domains shown)
VH: EVQLLESGGGLVKPGGSLRLSCAASGFTFSSYWMSWVRQAPGKGLEWVSGISARSGRTYYADSVKGRFTISRDDSKNTLYLQMNSLKTEDTAVYYCARDQDTIFGVVITWFDPWGQGTLVTVSS
VL: B12 VL with A28G, S32Y, T53S, S56G, G89Q, S91Y, Y92F, S93T, P96Y
B19: scFv G10(1E12) (scFv, V domains shown)
VH: B16 VH with T28I, L34M, D99E, G100D, A102S, F103M, I105V, Q108K, M111T
VL: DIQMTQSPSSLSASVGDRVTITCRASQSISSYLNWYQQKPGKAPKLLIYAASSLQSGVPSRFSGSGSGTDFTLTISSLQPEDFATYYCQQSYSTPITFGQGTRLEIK
B20: scFv G10(5C08) (scFv, V domains shown)
VH: QVQLVQSGAEVKKPGASVKVSCKASGYNFTGYYMHWVRQAPGQGLEWMGIIAPSDGSTNYAQKFQGRVTMTRDTSTSTVYMELSSLRSEDTAVYYCARETGDDAFDIWGQGTMVTVSS
VL: not shown
B21: scFv G10(3E04) (scFv, V domains shown)
VH: QVQLVQSGAEVKKPGASVKVSCKASGNTFIGYYVHWVRQAPGQGLEWVGIINPNGGSISYAQKFQGRVTMTRDTSTSTVYMELSSLRSEDTAVYYCARGSGDPNYYYYYGLDVWGQGTTVTVSS
VL: DIQMTQSPSSLSASVGDRVTITCQASQDISNYLNWYQQKPGKAPKLLIYAASNLQSGVPSRFSGSGSGTDFTLTISSLQPEDFATYYCQQANSLPYTFGQGTKVEIK
B22: scFv G10(4D04) (scFv, V domains shown)
VH: QVQLVQSGAEVKKPGASVKVSCKASGYTFTGYYVHWVRQAPGQGLEWMGIIAPSDGSTNYAQKFQGRVTMTRDTSTSTVYMELSSLRSEDTAVYYCARDPGGYMDVWGKGTTVTVSS
VL: B11 VL with T30S, N34A, N53K, N91S, N93G, S94V, V95P
B23: scFv G10(1F06) (scFv, V domains shown)
VH: B16 VH with T30I, L34M, G100S, D101S, A102G, F103L, I105P, M111L
VL: B21 VL with Q24R, D28S, A50K, N53S, Q55E, A91S, N92Y, S93I, L94I, V104L
notes: also called G10(1F6)
B24: scFv G10(5A08) (scFv, V domains shown)
VH: QVQLVQSGAEVKKPGSSVKVSCKASGGTFNNFAISWVRQAPGQGLEWMGGIIPIFDATNYAQKFQGRVTFTADESTSTAYMELSSLRSEDTAVYYCARGEYSSGFFFVGWFDLWGRGTQVTVSS
VL: not shown
notes: also called G10(5A8); scFv-G10-P5A08

These binders were tested against HLA-A*02:01 (alpha chain with beta-2 microglobulin), recombinant (human) (assay: conditional ligand exchange, stability ELISA).
LLASSILCA (also called G7 peptide) [peptide LLASSILCA]: binds.

These binders were tested against HLA-PEPTIDE target G8: HLA-A*02:01_…, recombinant soluble complex (human, enzymatically biotinylated (BirA) for screening and BLI) (assay: phage display, scFv ELISA on pHLA against negative control pHLAs).
B1: binds.
B2: binds.
B3: binds.
B4: binds.
B5: binds.
B6: binds.
B7: binds.
B8: binds.
B9: binds.
B10: binds.
B11: binds.
B12: binds.
B13: binds.

These binders were tested against HLA-PEPTIDE target G10: HLA-A*01:01_…, recombinant soluble complex (human, enzymatically biotinylated (BirA)) in the same assay as above.
B14: binds.
B15: binds.
B16: binds.
B17: binds.
B18: binds.
B19: binds.
B20: binds.
B21: binds.
B22: binds.
B23: binds.
B24: binds.

Source: patent publication US20220162320A1 (published 2022)
